Assay results: PMC8244513 (Current Research in Structural Biology, 2020)

Molecular target: the molecule itself
Test: native gel or EMSA

B1: ZnT8B-G3H6 (amino-terminal truncated, 35 kDa isoform of human zinc transporter ZnT8 / SLC30A8) (natural protein)
chain: MYHCHSGSKPTEKGANEYAYAKWKLCSASAICFIFMIAEVVGGHIAGSLAVVTDAAHLLIDLTSFLLSLFSLWLSSKPPSKRLTFGWHRAEILGALLSILCIWVVTGVLVYLACERLLYPDYQIQATVMIIVSSCAVAANIVLTVVLHQRCLGHNHKEVQANASVRAAFVHALGDLFQSISVLISALIIYFKPEYKIADPICTFIFSILVLASTITILKDFSILLMEGVPKSLNYSGVKELILAVDGVLSVHSLHIWSLTMNQVILSAHVATAASRDSQVVRREIAKALSKSFTMHSLTIQMESPVDQDPDCLFCEDPCD
stoichiometry N: 2
